From publication PMC3366790 (The Journal of Biological Chemistry, 2012)

Target: T1, full-length CDC34 with C191S/C223S substitutions (human, UniProt P49427 1-236, C191S | C223S)
T1 sequence: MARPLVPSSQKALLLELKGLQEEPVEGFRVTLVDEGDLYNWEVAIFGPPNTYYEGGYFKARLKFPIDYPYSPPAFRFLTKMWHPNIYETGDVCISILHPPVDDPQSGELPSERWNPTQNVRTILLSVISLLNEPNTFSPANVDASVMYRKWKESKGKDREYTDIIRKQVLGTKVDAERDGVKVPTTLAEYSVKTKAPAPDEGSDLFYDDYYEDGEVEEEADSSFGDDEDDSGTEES
Test: NMR titration

Kd: > 1000 µM
B1: sRbx1^12–108 (solubilized human Rbx1/ROC1 residues 12–108 with W27S, V30S, L32Q, W33S) (domain or fragment)
chain: not shown
